In US20230272028:

Columns and labels:
[1] = biological target: T1, CTSL1_2 8-mer FRET substrate Mca-ALFFSSPPK-Dnp
T1 chain: ALFFSSPPK

[2] = biological target: T2, CTSL1_1 FRET substrate (ALFKSSFP)
T2 chain: ALFKSSFP

B1: Cathepsin K (CTSK) (protein)
chain: APDSVDYRKKGYVTPVKNQGQCGSCWAFSSVGALEGQLKKKTGKLLNLSPQNLVDCVSENDGCGGGYMTNAFQYVQKNRGIDSEDAYPYVGQEESCMYNPTGKAAKCRGYREIPEGNEKALKRAVARVGPVSVAIDASLTSFQFYSKGVYYDESCNSDNLNHAVLAVGYGIQKGNKHWIIKNSWGENWGNKGYILMARNKNNACGIANLASFPKM
FRET substrate cleavage, specific activity [1]: measurably cleaved by CTSK but at a 15× lower level than the CTSL1_1 substrate | FRET substrate cleavage, specific activity [2]: measurably cleaved by CTSK but at a 15× lower level than the CTSL1_1 substrate
